{"source": "patent US20220380446A1", "about": "(ABL BIO, published 2022)", "key": {"[1]": {"target": "T1, human α-synuclein pre-formed fibrils (Human Alpha Synuclein Pre-formed Fibrils Type II, StressMarq SPR-317) (human, UniProt P37840 1-140)", "assay": "SPR Biacore T200, antibody captured on Protein A chip, α-syn PFF analyte, 1:1 model", "procedure": "(§1) The equipment used was Biacore® (GE Healthcare, Model T200). Protein A (GE Healthcare, Cat: 29-1275-56) was used as a chip, 10 mM glycine-HCl pH 1.5 (GE Healthcare, Cat: BR-1003-54) was used as a regeneration buffer, and HBS-EP was used as a running buffer and an analyte dilution and sample dilution buffer. […] A capture phase was carried out at a contact time of 60 seconds and a flow rate of 30 μL/min was used for a stabilization period of 60 seconds, with the target resonance units (RU) of fibril set to 10 (theoretical). In an association phase, the association time was set to 60 seconds and a flow rate was set to 60 μL/min. In a dissociation phase, the dissociation time was set to 180 seconds, and a flow rate was set to 60 μL/min. In a regeneration phase, the flow rate was set to 30 μL/min, and the regeneration time was set to 60 seconds. A 1:1 binding model was used for fitting, and the Biacore® T200 Evaluation software (GE Healthcare) was used for the evaluation."}, "[2]": {"target": "T1, human α-synuclein pre-formed fibrils …", "assay": "SPR (Biacore), antibody captured on anti-hFab CM3 chip, α-syn PFF as analyte (sample PFF-2), single-cycle kinetics, 1:1 Binding fit, 25 °C; Run2", "procedure": "(§2) The equipment used was Biacore®. Anti-hFab (Sigma, I5260-1ML) diluted in acetate buffer (pH 5.0) was immobilized on the surface of an CM3 chip (GE Healthcare) by amine coupling. […] All procedures in association and dissociation phases were done in single-cycle kinetics. A 1:1 binding model was used for fitting, and the Biacore® T200 Evaluation software was used for the evaluation."}, "[3]": {"target": "T1, human α-synuclein pre-formed fibrils …", "assay": "sandwich ELISA, antibody coated, α-syn PFF added, 7B7-biotin detection", "procedure": "(§3) Specifically, the antibodies were diluted with PBS by six-fold serial dilution from 400 nM to 0.009 nM. The diluted antibodies were added to a 96-well plate at 100 μL/well for coating. The plate was sealed and incubated at 4° C. for 16 hours. After washing with phosphate-buffered saline with Tween® (PBS-T; 0.05% Tween® 20) five times, the plate was blocked with 5% BSA in PBS 200 μL/well at 37° C. for 2 hours. After washing with PBS-T five times, α-syn PFF (2 μg/mL, 100 μL/well in 2% BSA in PBS) was added to the plate and incubated at 37° C. for 2 hours. After washing with PBS-T five times, 7B7-biotin antibody (anti-α-syn antibody; 1 μg/mL/100 μL/well, in 2% BSA in PBS) was added and incubated at 37° C. for 2 hours. After washing with PBS-T five times, the plate was incubated with horseradish peroxidase (HRP)-bound streptavidin in PBS with 2% BSA (1:5000, 1 mg/mL stock, 20 ng/well, 100 μL/well) at 37° C. for 1 hour. After washing with PBS-T five times, 3,3′,5,5′-tetramethylbenzidine (TMB) (100 μL/well) was added and incubated at room temperature for 5 minutes. The reaction was stopped by the addition of 0.5 N H₂SO₄ (50 μL/well). Optical absorbance at 450 nm was measured by using a plate reader, with absorbance at 650 nm subtracted from the reading."}, "[4]": {"target": "T1, human α-synuclein pre-formed fibrils …", "assay": "SPR Biacore, antibody captured on anti-hFab CM3 chip, α-syn PFF analyte, single-cycle kinetics, 1:1 model", "procedure": "as §2"}, "[5]": {"target": "T1, human α-synuclein pre-formed fibrils …", "assay": "SPR (Biacore), file name 'Main-ProA', α-syn PFF as analyte (sample PFF-1), single-cycle kinetics, 1:1 Binding fit, 25 °C; Run01"}, "[6]": {"target": "T1, human α-synuclein pre-formed fibrils …", "assay": "SPR Biacore T200, antibody captured on Protein A chip, α-syn PFF analyte, 1:1 model", "procedure": "as §1", "remark": "listed apart in the source"}, "[7]": {"target": "T1, human α-synuclein pre-formed fibrils …", "assay": "sandwich ELISA, antibody coated, α-syn PFF added, 7B7-biotin detection", "procedure": "as §3", "remark": "listed apart in the source"}, "[8]": {"target": "T1, human α-synuclein pre-formed fibrils …", "assay": "SPR (Biacore), antibody captured on anti-hFab CM3 chip, α-syn PFF as analyte (sample PFF-1), single-cycle kinetics, 1:1 Binding fit, 25 °C; Run1", "procedure": "as §2"}, "[9]": {"target": "T1, human α-synuclein pre-formed fibrils …", "assay": "SPR (Biacore), file name 'Main-ProA', α-syn PFF as analyte (sample PFF-4), single-cycle kinetics, 1:1 Binding fit, 25 °C; Run02"}}, "note": "Where two headings read alike, the source gives them in different places."}
{"binder": "hu1E4(V1_VL1) x Grabody B (bispecific antibody, human IgG1, kappa, Anti-α-syn/IGF1R bispecific; hole heavy chain (M428L) carries the anti-IGF1R scFv Grabody B at its C-terminus through a (G4S)3 linker; knob heavy chain (M428L) without scFv; also called hu1E4(V1 VL1) × Grabody B; 1E4(Ver.1_VL1) × Grabody B) heavy 1: not shown heavy 2: not shown light: DIVMTQTPLSLSVTPGQPASISCRSSQSLVHSNGNTYLHWYLQKPGQSPQLLIYKVSNRFSGVPDRFSGSGSGTDFTLKISRVEAEDVGVYYCSQSTHVPRTFGQGTKLEIKRTVAAPSVFIFPPSDEQLKSGTASVVCLLNNFYPREAKVQWKVDNALQSGNSQESVTEQDSKDSTYSLSSTLTLSKADYEKHKVYACEVTHQGLSSPVTKSFNRGEC", "values": [{"measurement": "Kd", "setting": "[1]", "result": 0.0281, "unit": "nM"}, {"measurement": "koff", "setting": "[1]", "result": 0.000322, "unit": "s⁻¹"}, {"measurement": "kon", "setting": "[1]", "result": "1.14e+07", "unit": "M⁻¹ s⁻¹"}, {"measurement": "koff", "setting": "[2]", "result": 0.000743, "unit": "s⁻¹"}, {"measurement": "kon", "setting": "[2]", "result": "1.83e+07", "unit": "M⁻¹ s⁻¹"}, {"measurement": "EC50", "setting": "[3]", "result": 0.236, "unit": "nM"}, {"measurement": "Kd", "setting": "[4]", "result": 0.0379, "unit": "nM"}, {"measurement": "koff", "setting": "[4]", "result": 0.000706, "unit": "s⁻¹"}, {"measurement": "kon", "setting": "[4]", "result": "1.87e+07", "unit": "M⁻¹ s⁻¹"}, {"measurement": "koff", "setting": "[5]", "result": 0.000472, "unit": "s⁻¹"}, {"measurement": "kon", "setting": "[5]", "result": "1.35e+07", "unit": "M⁻¹ s⁻¹"}, {"measurement": "Kd", "setting": "[6]", "result": 0.0293, "unit": "nM"}, {"measurement": "koff", "setting": "[6]", "result": 0.000423, "unit": "s⁻¹"}, {"measurement": "kon", "setting": "[6]", "result": "1.45e+07", "unit": "M⁻¹ s⁻¹"}, {"measurement": "EC50", "setting": "[7]", "result": 0.334, "unit": "nM"}, {"measurement": "koff", "setting": "[8]", "result": 0.00067, "unit": "s⁻¹"}, {"measurement": "kon", "setting": "[8]", "result": "1.91e+07", "unit": "M⁻¹ s⁻¹"}, {"measurement": "koff", "setting": "[9]", "result": 0.000219, "unit": "s⁻¹"}, {"measurement": "kon", "setting": "[9]", "result": "1.44e+07", "unit": "M⁻¹ s⁻¹"}]}
